Target: human BCMA (huBCMA), full length, on cells (human) (UniProt Q02223)
Test: cell-based or functional assay

Sequence of human BCMA (huBCMA), full length, on cells (human) (Q02223 whole entry N81S): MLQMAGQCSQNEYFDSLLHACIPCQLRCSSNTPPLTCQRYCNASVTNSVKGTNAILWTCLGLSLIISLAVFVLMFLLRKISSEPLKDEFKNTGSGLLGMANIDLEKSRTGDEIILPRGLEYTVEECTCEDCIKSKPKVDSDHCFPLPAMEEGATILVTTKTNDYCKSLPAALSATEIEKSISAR

B1: 29C12-MCC-DM1 (antibody drug conjugate) (protein)
VH: EVQLLESGGALVQPGGSLRLSCAASGFTFSSYAMNWVRQAPGKGLEWVSAISVGGDTYYADSVKGRFTISRDNSKNTLYLQMNSLRAEDTAVYYCAKDQVTMVRGVWYYYGLDVWGQGTTVTVSS
VL: DIVMIQSPLSLPVTPGEPASISCRSSQSLLHSNGNNYLDWYLQKPGQSPHLLISLGSNRTSGVPDRFSGSGSGTDFTLKISRVEAEDVGVYYCMQALQPPRRFGQGTKLEIKR
H929 cell growth inhibition IC50 (CellTiter-Glo, 96 h): 390 pM
